Source: article doi:10.1101/2024.04.23.590744 (bioRxiv, 2024)
Read-outs that look alike come from different tables or passages of the source.

Tests used:
Experiment in all cases: SEC-MALS
[1] = biological target: human LETM1 F-EF-hand domain, residues 643-699, D676K/N678K (human) (UniProt O95202)
[2] = biological target: human LETM1 F-EF-hand domain, residues 643-699, D676K/N678K (human) (UniProt O95202); remark: listed apart in the source
[3] = biological target: the molecule itself
[4] = biological target: the molecule itself; remark: listed apart in the source

| Molecule | stoichiometry N [3] | stoichiometry N [4] | other results |
| --- | --- | --- | --- |
| human LETM1 F-EF-hand domain, residues 643-699, D676K/N678K (from UniProt O95202-1 643-699) (domain or fragment) | – | – | stoichiometry N [1]: 2; stoichiometry N [2]: 2 |
| human LETM1 F-EF-hand domain, residues 643-699, wild type (domain or fragment, UniProt O95202-1 643-699, looked up) TGENVISVAELINAMKQVKHIPESKLTSLAAALDENKDGKVNIDDLVKVIELVDKED | ~2 | – | – |
| human LETM1 F-EF-hand domain, residues 643-699, D676A/N678A (domain or fragment, UniProt O95202-1 643-699, looked up) TGENVISVAELINAMKQVKHIPESKLTSLAAALAEAKDGKVNIDDLVKVIELVDKED | – | 2 | – |
| human LETM1 F-EF-hand domain, residues 643-699, D686A/D687A (domain or fragment, UniProt O95202-1 643-699, looked up) TGENVISVAELINAMKQVKHIPESKLTSLAAALDENKDGKVNIAALVKVIELVDKED | – | 2 | – |
| human LETM1 F-EF-hand domain, residues 643-699, D687E (domain or fragment, UniProt O95202-1 643-699, looked up) TGENVISVAELINAMKQVKHIPESKLTSLAAALDENKDGKVNIDELVKVIELVDKED | 2 | – | – |
